Data from paper PMC11339404.

Columns and labels:
Test in all cases: FRET
RAD51;SWSAP1-SWS1 = RAD51;SWSAP1-SWS1 (human;human, UniProt Q06609;Q6NVH7;Q19AV6 1-339;1-250;1-140, |)
RPA = RPA (human, UniProt P27694;P15927;P35244 1-616;1-270;1-121)
RAD51 = RAD51 (human, UniProt Q06609 1-339)
SWSAP1-SWS1 = target: T1, SWSAP1-SWS1 (human, UniProt Q6NVH7;Q19AV6 1-250;1-140)
T1 sequence 1: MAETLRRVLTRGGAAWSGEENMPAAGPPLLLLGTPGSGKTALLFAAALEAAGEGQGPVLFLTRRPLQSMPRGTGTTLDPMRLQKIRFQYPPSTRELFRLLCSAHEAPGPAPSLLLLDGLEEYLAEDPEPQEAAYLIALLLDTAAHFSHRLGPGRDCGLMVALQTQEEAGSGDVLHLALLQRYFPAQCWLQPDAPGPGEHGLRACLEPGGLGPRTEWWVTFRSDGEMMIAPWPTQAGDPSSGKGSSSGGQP
T1 sequence 2: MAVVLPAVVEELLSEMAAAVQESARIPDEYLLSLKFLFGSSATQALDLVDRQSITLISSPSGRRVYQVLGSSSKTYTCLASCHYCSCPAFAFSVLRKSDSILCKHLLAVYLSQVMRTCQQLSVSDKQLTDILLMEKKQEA

Chain of RAD51;SWSAP1-SWS1 (Q06609 whole entry, one chain of several): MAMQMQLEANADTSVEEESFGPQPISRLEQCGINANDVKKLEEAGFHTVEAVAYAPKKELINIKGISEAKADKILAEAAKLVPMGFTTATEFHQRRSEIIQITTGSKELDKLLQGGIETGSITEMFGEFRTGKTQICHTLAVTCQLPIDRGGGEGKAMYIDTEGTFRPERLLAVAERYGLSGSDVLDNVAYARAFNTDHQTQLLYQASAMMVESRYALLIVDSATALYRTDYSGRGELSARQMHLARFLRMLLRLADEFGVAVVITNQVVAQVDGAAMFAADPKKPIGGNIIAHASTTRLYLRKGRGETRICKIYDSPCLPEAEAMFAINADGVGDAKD
Chain of RAD51 (Q06609 whole entry): as the sequence (Q06609 whole entry, one chain of several) above
Chain of RPA (P27694 whole entry, chain 1 of 3): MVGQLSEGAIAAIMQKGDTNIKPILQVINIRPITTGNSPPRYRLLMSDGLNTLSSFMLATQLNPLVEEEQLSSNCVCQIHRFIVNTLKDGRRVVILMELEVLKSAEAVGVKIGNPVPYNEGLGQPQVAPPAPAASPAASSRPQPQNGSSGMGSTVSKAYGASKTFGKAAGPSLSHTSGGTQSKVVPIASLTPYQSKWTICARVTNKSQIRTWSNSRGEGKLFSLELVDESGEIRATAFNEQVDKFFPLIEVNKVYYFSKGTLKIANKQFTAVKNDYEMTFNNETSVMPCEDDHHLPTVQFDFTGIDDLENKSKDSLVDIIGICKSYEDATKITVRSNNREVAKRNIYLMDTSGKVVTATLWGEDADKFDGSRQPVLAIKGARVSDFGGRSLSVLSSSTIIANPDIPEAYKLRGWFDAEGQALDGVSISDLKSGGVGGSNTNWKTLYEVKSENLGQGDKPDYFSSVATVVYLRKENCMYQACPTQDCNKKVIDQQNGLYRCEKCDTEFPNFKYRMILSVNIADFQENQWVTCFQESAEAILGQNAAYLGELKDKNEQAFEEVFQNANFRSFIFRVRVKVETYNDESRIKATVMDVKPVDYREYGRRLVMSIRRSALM
Chain of RPA (P15927 whole entry, chain 2 of 3): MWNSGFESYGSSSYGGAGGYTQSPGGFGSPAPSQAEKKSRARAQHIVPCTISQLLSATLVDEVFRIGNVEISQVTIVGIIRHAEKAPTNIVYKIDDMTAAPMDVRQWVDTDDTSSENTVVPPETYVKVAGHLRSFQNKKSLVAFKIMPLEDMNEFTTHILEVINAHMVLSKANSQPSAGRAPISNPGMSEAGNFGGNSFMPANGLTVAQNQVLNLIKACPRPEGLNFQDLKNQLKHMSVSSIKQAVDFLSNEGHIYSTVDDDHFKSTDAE
Chain of RPA (P35244 whole entry, chain 3 of 3): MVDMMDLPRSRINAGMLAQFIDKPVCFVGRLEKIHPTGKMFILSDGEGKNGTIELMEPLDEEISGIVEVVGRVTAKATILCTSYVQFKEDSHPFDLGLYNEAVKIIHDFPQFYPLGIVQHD

B1: Cy3-dT60-Cy5 (ssDNA)
DNA: TTTTTTTTTTTTTTTTTTTTTTTTTTTTTTTTTTTTTTTTTTTTTTTTTTTTTTTTTTTT
B1: binds (RAD51;SWSAP1-SWS1); binds (RPA); binds (RAD51). B1: no binding (SWSAP1-SWS1).
